Experimental data taken from patent publication US20240052045A1 (VIB VZW, published 2024).
Values belong to the binder of their own block, whether it stands above or below them.

Tests used:
human CCR8 [1] = target: T1, human CCR8 (human, UniProt P51685 1-355); experiment: flow cytometry on HEK293 cells with hCCR8 and chimeric/deleted variants
T1 construct: Expressed on HEK293, HEK293T or CHO-K1 cells, stably or transiently transfected; also called hCCR8

murine CCR8 [2] = target: T2, murine CCR8 (mouse, UniProt P56484 1-353); experiment: flow cytometry on HEK293T cells transiently transfected with mouse CCR8
T2 construct: Transiently expressed on HEK293/HEK293T cells or endogenously expressed on BW5147 cells; also called mouse CCR8; mCCR8
T2 sequence: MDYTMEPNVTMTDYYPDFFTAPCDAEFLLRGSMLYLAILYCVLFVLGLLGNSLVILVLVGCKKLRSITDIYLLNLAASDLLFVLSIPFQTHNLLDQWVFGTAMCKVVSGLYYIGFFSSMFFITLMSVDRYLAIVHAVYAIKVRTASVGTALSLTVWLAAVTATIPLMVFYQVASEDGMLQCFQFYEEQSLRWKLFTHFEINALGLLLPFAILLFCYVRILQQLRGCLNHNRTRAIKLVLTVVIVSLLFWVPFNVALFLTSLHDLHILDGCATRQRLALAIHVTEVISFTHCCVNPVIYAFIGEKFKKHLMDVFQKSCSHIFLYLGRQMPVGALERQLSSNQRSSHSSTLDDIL

human CCR8 [3] = target: T1, human CCR8; experiment: flow cytometry competition with parental VHH-57
Excerpt: (§1) Multiple His6 tagged VHH variants were thus generated and evaluated by flow cytometry for their ability to compete for binding to hCCR8 with their FLAG3-His6 tagged parental counterpart (VHH-57, VHH-64 or VHH-67).

human CCR8 [4] = target: T1, human CCR8; experiment: flow cytometry competition with parental VHH-67
Excerpt: as §1

human CCR8 [5] = target: T1, human CCR8; experiment: competitive binding, flow cytometry
murine CCR8 [6] = target: T2, murine CCR8; experiment: flow cytometry on cells transfected with mouse CCR8
human CCR8 [7] = target: T1, human CCR8; experiment: flow cytometry competition with parental VHH-64
Excerpt: as §1

T1 sequence (P51685 whole entry): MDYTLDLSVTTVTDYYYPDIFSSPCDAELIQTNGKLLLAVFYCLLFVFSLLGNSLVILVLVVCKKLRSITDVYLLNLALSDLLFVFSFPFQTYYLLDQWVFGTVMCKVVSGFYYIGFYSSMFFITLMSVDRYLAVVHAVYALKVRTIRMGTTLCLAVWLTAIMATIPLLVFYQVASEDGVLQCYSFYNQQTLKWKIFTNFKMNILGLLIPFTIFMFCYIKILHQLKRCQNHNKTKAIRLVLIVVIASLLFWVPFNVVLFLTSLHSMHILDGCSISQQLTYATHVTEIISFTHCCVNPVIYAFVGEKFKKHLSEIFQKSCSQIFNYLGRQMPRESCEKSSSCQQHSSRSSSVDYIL

B1: VHH-57 (VHH)
VHH: EVQLVESGGGLVQPGGSLRLSCTASGNIFSLLDMKWYRQAPGKQRELVADITSGGSTNYADPVKGRFTISRDNAKNTVYLQMNSLRPEDTAVYYCNAAPYYWGAYRRQESWGQGTLVTVSS
notes: Monovalent VHH purified from E. coli periplasm with C-terminal FLAG3 and His6 tags; not shown: C-terminal FLAG3 and His6 tags
binding result (human CCR8 [1]): binds
binding result (murine CCR8 [2]): binds

B2: VHH-119 (VHH)
VHH: DVQLVESGGGLVQPGGSLRLSCTASGSIFSLLDMKWYRQAPGKQRELVADITSGGSTNYADSVKGRFTISRDNAKNTVYLQMNSLRPEDTAVYYCNAAPYYWGAYRRQESWGQGTLVTVSS
notes: also called VHH-57 with mutations E1D, N27S, P62S; not shown: C-terminal His6 tag (no FLAG3)
binding result (human CCR8 [3]): binds

B3: VHH-120 (VHH)
VHH: DVQLVESGGGLVQPGGSLRLSCTVSGSIFSLRTVGWYRQAPGKQRELVATISAGGATDYADSVKGRFTISRDNAKNTVYLQMNSLRPEDTAVYYCYAQDSYKIYKSRYTQDYWGQGTLVTVSS
notes: also called VHH-67 with mutations E1D, V65G, V69I, G74A; not shown: C-terminal His6 tag (no FLAG3)
binding result (human CCR8 [4]): binds

B6: VHH-121 (VHH)
VHH: DVQLVESGGGLVQPGGSLRLSCTVSGSIFSLRTVGWYRQAPGKQRELVATISAGGATDYADSVKGRFTISRDNAKNTVYLQMNSLRPEDTAVYYCYAQQSYKIYKSRYTQDYWGQGTLVTVSS
notes: also called VHH-67 with E1D, V65G, V69I, G74A, D99Q; not shown: C-terminal His6 tag (no FLAG3)
binding result (human CCR8 [4]): binds

B7: VHH-64 (VHH)
VHH: EVQLVESGGGLVQPGGSLRLSCAVSGGIRSIIPAGWYRQVPGKQRELVAAISTAGSADYADSVKGRFTISRDNTKNTAYLQMNSLRPEDTAVYYCNGRQTGWRTRVDYWGQGTLVTVSS
notes: as for B1
binding result (human CCR8 [5]): binds
binding result (murine CCR8 [6]): binds

Continued, values first:

binding result (human CCR8 [1]): binds
binding result (murine CCR8 [2]): binds
B4: VHH-67 (VHH)
VHH: EVQLVESGGGLVQPGGSLRLSCTVSGSIFSLRTVGWYRQAPGKQRELVATISAGGATDYADSVKVRFTVSRDNGKNTVYLQMNSLRPEDTAVYYCYAQDSYKIYKSRYTQDYWGQGTLVTVSS
notes: as for B1

binding result (human CCR8 [4]): binds
B5: VHH-122 (VHH)
VHH: DVQLVESGGGLVQPGGSLRLSCTVSGSIFSLRTVGWYRQAPGKQRELVATISAGGATDYADSVKGRFTISRDNAKNTVYLQMNSLRPEDTAVYYCYAQDTYKIYKSRYTQDYWGQGTLVTVSS
notes: also called VHH-67 with E1D, V65G, V69I, G74A, S100T; not shown: C-terminal His6 tag (no FLAG3)

binding result (human CCR8 [7]): binds
B8: VHH-84 (VHH)
VHH: DVQLVESGGGLVQPGGSLRLSCAVSGGIRSIIPAGWYRQAPGKQRELVAAISTAGSADYADSVKGRFTISRDNAKNTVYLQMNSLRPEDTAVYYCNGRQTGWRTRVDYWGQGTLVTVSS
notes: also called VHH-64 with mutations E1D, V40A, T74A, A78V; not shown: C-terminal His6 tag (no FLAG3)
